Test results from patent publication US6030776.

Legend:
[1] = target: N-bromoacetyl-bradykinin (BrBK) (UniProt P01042); conditions: 5' guanosine monophosphorothioate (GMPS); 100-fold reduction in Km vs bulk 30N1 pool, 67-fold higher kcat, 6700-fold higher kcat/Km; thioether bond formation assayed on APM gel
[2] = target: bradykinin (native BK peptide) (UniProt P01042); assay: inhibition; conditions: 5' guanosine monophosphorothioate (GMPS); inhibition of reaction of 12.1 with BrBK; nearly identical to Km of the uninhibited reaction
[3] = target: des-Arg9-bradykinin lacks carboxy-terminal Arg9 (UniProt P01042); assay: inhibition; conditions: 5' guanosine monophosphorothioate (GMPS); inhibition of reaction of 12.1 with BrBK; about 18-fold weaker than BK

AGGCUUCGACAAACGCUCAAAGCUGUUGGCAGCGCUGGUGAAGGGAUGGC [reactant 12.1 GMPS-RNA]
fold reduction in Km vs starting pool [1]: 100 fold | Ki [2]: 140 µM | Ki [3]: 2600 µM
